PMC5070868

What was measured:
Test in all cases: flow cytometry on cells; PBMCs of SLA class I haplotype-defined Microminipigs stained with X2F6 followed by anti-mouse IgG-FITC; lymphoid gate; also after TSST-1 or IFN-γ stimulation
[1] = biological target: classical class I SLA on PBMCs of Hp-35.0 homozygous Microminipigs
[2] = biological target: classical class I SLA on PBMCs of Hp-17.0 homozygous Microminipigs
[3] = biological target: classical class I SLA on PBMCs of Hp-10.0 homozygous Microminipigs

B1: X2F6 monoclonal antibody (antibody, V domains shown)
VH: QVQLQQSGAELVKPGASVKLSCKASGYTFTSYDINWVRQRPEQGLEWIGWIYPGDGSTKYNEKFKGKATLTTDKSSSTAYMQLSRLTSEDSAVYFCASPYYYGSSPFAYWGQGTLVTVSA
VL: DIQMTQSPASLSASVGETVTITCRASENIYSYLAWYQQKQGKSPQLLVYNAKTLAEGVPSRFSGSGSGTQFSLKINSLQPEDFGSYYCQHHYGTPRTFGGGTKLEIK
B1 was tested, and the MFI [1] was 767, the MFI [2] was 122 and the MFI [3] was 1900.
